Results as given in paper PMC6995596, “The Plasma Factor XIII Heterotetrameric Complex Structure: Unexpected Unequal Pairing within a Symmetric Complex” (Biomolecules, 2019).
Values belong to the binder of their own block, whether it stands above or below them.

What was measured:
[1] = target: recombinant FXIII-A2 (coagulation factor XIII A subunit dimer) (UniProt P00488 2-732, zymogen dimer with activation peptide retained (paper residues 1-37 = entry 2-38; paper numbering = entry minus 1); initiator Met removed; limits follow the paper's domain boundaries (1-731) and PDB 1); test: ITC; 2.5 µM rFXIII-A2 in the cell, 25 µM rFXIII-B in the syringe; MicroCal200; one set of binding sites fitted in Origin, stepwise model FS ↔ MA + A1 ↔ MA2 fitted in Affinimeter; conditions: both partners purified
[2] = target: T1, recombinant FXIII-B (coagulation factor XIII B subunit) (human, UniProt P05160 21-661); test: ITC; event 2: M1A1 + A1 ↔ M1A2 (second site)
T1 chain: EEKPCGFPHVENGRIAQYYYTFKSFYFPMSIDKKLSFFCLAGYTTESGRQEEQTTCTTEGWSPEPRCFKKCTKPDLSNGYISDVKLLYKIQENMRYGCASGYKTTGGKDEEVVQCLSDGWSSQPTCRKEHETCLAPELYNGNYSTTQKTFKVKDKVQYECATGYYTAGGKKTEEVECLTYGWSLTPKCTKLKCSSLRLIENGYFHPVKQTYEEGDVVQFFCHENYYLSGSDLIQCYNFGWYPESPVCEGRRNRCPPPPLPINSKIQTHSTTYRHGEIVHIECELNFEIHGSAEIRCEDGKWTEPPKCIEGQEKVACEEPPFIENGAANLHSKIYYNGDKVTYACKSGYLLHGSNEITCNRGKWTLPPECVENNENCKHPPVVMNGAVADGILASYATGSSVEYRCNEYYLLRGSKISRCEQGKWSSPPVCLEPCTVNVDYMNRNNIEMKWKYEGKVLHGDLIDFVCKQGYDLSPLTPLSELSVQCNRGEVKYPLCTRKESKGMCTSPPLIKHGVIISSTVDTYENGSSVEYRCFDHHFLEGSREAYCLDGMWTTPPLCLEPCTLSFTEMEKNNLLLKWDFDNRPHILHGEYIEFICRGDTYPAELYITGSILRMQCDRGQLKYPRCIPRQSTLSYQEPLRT

KD of the first binding event (sequential two-step model) [1]: 0.0015 µM
KD of the second binding event (MA↔MA2) [1]: 4.3 µM
dH of the first binding event (sequential two-step model) [1]: -54.1 kcal/mol
dH of the second binding event (MA↔MA2) [1]: -86 kcal/mol
B1: recombinant FXIII-B (coagulation factor XIII B subunit) (natural protein, human, UniProt P05160 21-661, looked up)
chain: T1 chain
notes: coagulation factor XIII B subunit, human cDNA in the pReciever-M01 mammalian expression vector; secreted protein; the stepwise ITC model treats the syringe species as single FXIII-B units; also called rFXIII-B; rFXIII-B2

Kd [2]: 4.36 µM
B2: recombinant FXIII-A2 (coagulation factor XIII A subunit dimer) (natural protein)
chain: SETSRTAFGGRRAVPPNNSNAAEDDLPTVELQGVVPRGVNLQEFLNVTSVHLFKERWDTNKVDHHTDKYENNKLIVRRGQSFYVQIDFSRPYDPRRDLFRVEYVIGRYPQENKGTYIPVPIVSELQSGKWGAKIVMREDRSVRLSIQSSPKCIVGKFRMYVAVWTPYGVLRTSRNPETDTYILFNPWCEDDAVYLDNEKEREEYVLNDIGVIFYGEVNDIKTRSWSYGQFEDGILDTCLYVMDRAQMDLSGRGNPIKVSRVGSAMVNAKDDEGVLVGSWDNIYAYGVPPSAWTGSVDILLEYRSSENPVRYGQCWVFAGVFNTFLRCLGIPARIVTNYFSAHDNDANLQMDIFLEEDGNVNSKLTKDSVWNYHCWNEAWMTRPDLPVGFGGWQAVDSTPQENSDGMYRCGPASVQAIKHGHVCFQFDAPFVFAEVNSDLIYITAKKDGTHVVENVDATHIGKLIVTKQIGGDGMMDITDTYKFQEGQEEERLALETALMYGAKKPLNTEGVMKSRSNVDMDFEVENAVLGKDFKLSITFRNNSHNRYTITAYLSANITFYTGVPKAEFKKETFDVTLEPLSFKKEAVLIQAGEYMGQLLEQASLHFFVTARINETRDVLAKQKSTVLTIPEIIIKVRGTQVVGSDMTVTVEFTNPLKETLRNVWVHLDGPGVTRPMKKMFREIRPNSTVQWEEVCRPWVSGHRKLIASMSSDSLRHVYGELDVQIQRRPSM
modifications: zymogen dimer with activation peptide retained (paper residues 1-37 = entry 2-38; paper numbering = entry minus 1); initiator Met removed; limits follow the paper's domain boundaries (1-731) and PDB 1F13; any residual tag residues not stated
